Publication PMC6597003 (ACS chemical biology, 2018)
Ends that are not written are not given here.

system: EphA2; assay: not given; settings: recently reported by the authors; cited from earlier work

Molecule	concentration required in cell-based assays to activate the receptor
CSCC[C@H](NC(=O)[C@H](CCSC)NC(=O)[C@@H]1CCCN1C(=O)[C@@H](NC(=O)[C@H](CO)NC(=O)[C@H](CC(=O)O)NC(=O)[C@@H]1CCCN1C(=O)[C@H](Cc1ccc(O)cc1)NC(=O)[C@H](C)NC(=O)[C@H](CO)NC(=O)[C@@H](N)Cc1ccc(O)cc1)C(C)C)C(=O)N[C@@H](CO)C(N)=O [YSA]	tripledigit micromolar concentration

target: ephrin type-A receptor 2 ligand-binding domain (UniProt P29317 23-202); assay: DELFIA displacement assay; settings: not given
Sequence (P29317 23-202): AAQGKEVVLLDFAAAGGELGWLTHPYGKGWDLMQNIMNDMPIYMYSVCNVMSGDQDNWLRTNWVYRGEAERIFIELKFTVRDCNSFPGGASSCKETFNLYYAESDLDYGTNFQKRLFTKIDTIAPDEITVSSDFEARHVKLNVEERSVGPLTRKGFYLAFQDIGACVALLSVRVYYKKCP

Molecule	IC50 [µM]
FTAFPLGFEFRP-NH2 [135B8]	> 100
FTAFPLGFEMMS-NH2 [135B9]	> 100
YSCYPDSVPFRP-NH2 [135D6]	> 100
YSVYPDSVPFRP-NH2 [135D7]	> 200
YSLYPDSVPFRP-NH2 [135D8]	> 200

Further lines, results first:

IC50 [µM]	Molecule
> 500	YDYVAVAGPAEY-NH2 [135A1 (1C1)]
> 100	YSAYPLSVEFRP-NH2 [135A7]
> 100	YSAYPDSVEMMS-NH2 [135B1]
> 200	YSAYPLSVEMMS-NH2 [135B2]
